According to patent US20110158954A1, “METHOD FOR PRODUCING GAMMA DELTA T CELL POPULATION” (priority 2007, published 2011):

B1: H296-H296: modified fibronectin fragment in which two H-296's are connected to each other (SEQ ID NO: 22) (protein)
chain: AIPAPTDLKFTQVTPTSLSAQWTPPNVQLTGYRVRVTPKEKTGPMKEINLAPDSSSVVVSGLMVATKYEVSVYALKDTLTSRPAQGVVTTLENVSPPRRARVTDATETTITISWRTKTETITGFQVDAVPANGQTPIQRTIKPDVRSYTITGLQPGTDYKIYLYTLNDNARSSPVVIDASTAIDAPSNLRFLATTPNSLLVSWQPPRARITGYIIKYEKPGSPPREVVPRPRPGVTEATITGLEPGTEYTIYVIALKNNQKSEPLIGRKKTDELPQLVTLPHPNLHGPEILDVPSTAMAIPAPTDLKFTQVTPTSLSAQWTPPNVQLTGYRVRVTPKEKTGPMKEINLAPDSSSVVVSGLMVATKYEVSVYALKDTLTSRPAQGVVTTLENVSPPRRARVTDATETTITISWRTKTETITGFQVDAVPANGQTPIQRTIKPDVRSYTITGLQPGTDYKIYLYTLNDNARSSPVVIDASTAIDAPSNLRFLATTPNSLLVSWQPPRARITGYIIKYEKPGSPPREVVPRPRPGVTEATITGLEPGTEYTIYVIALKNNQKSEPLIGRKKTDELPQLVTLPHPNLHGPEILDVPST
modifications: Fibronectin fragment named H296-H296

What was measured:
Daudi cells = test: Cytotoxic activity of cultured γδ T cell population, Calcein-AM release; type: cell-based, human; conditions: γδ T cells expanded 14 days with pamidronate on immobilized FN fragment; target cells Daudi; E/T 30; 4 hours
Procedure: (§1) The cytotoxic activity was determined for the cells on the fourteenth day from the initiation of culture prepared in Example 3-(1). The cytotoxic activity was evaluated by a method for assaying cytotoxic activity using Calcein-AM [Lichtenfels R. et al., J. Immunol. Methods 172(2), 227-239 (1994)]. […]
(§2) The cells on the fourteenth day from the initiation of culture prepared in Example 3-(1) were diluted with an RPMI 1640 medium containing 5% (v/v) human AB serum, 0.1 mM NEAA mixture, 1 mM sodium pyruvate (all manufactured by Cambrex), 2 mM L-glutamine, 10 μg/mL streptomycin sulfate (hereinafter referred to as “5HRPMI”) as effector cells, so as to have a concentration of 3×10^6 cells/mL. […] Upon the addition, the ratio of the effector cells (E) to the Calcein-labeled target cells (T) is expressed as an E/T ratio, and the measurements were made at an E/T ratio of 30. […] Thereafter, 100 μL of the culture supernatant was collected from each well, and the amount of Calcein released into the culture supernatant was determined with a fluorescence plate reader (Mithras LB 940, manufactured by BERTHOLD TECHNOLOGIES) (excited at 485 nm/measured at 535 nm). The “cytotoxic activity (%)” was calculated in accordance with the following formula.
(§3) Cytotoxic Activity (%)={(Measured Value in Each Well−Minimum Released Amount)/(Maximum Released Amount−Minimum Released Amount)}×100 […]

K562 cells = test: as above; type: cell-based, human; conditions: γδ T cells expanded 14 days with pamidronate on immobilized FN fragment; target cells K526 (so in the source); E/T 30; 4 hours
Procedure: as §1, §2, §3

γδ T cells = test: Expansion of γδ T cell population using zoledronate (Example 5); type: cell-based; conditions: human PBMCs; RPMI 1640, then 10HRPMI+L-Gln; stimulant zoledronate 1 μM for 48 hours; IL-2 100 U/mL; immobilized FN fragment; day 14
Procedure: The immobilization of an FN fragment was carried out in the same manner as in Example 1-(2), provided that a 6-well cell culture plate was used as a plate to be immobilized, and that an ACD-A solution (pH 5.0) containing H296-H296 (final concentration: 3 μg/mL) was added in a volume of 1.2 mL/well each.
PBMCs prepared in Example 1-(1) were suspended in an RPMI 1640 medium containing 0.25% (w/v) HSA so as to have a concentration of 1×10^6 cells/mL, to prepare a cell suspension. Thereafter, the above cells were added to a plate to which nothing was immobilized, or the plate immobilized with H296-H296 prepared in Example 5-(1), in a volume of 5 mL/well each. […]
The ratio of γδ T cell was analyzed according to flow cytometry for PBMCs prepared in Example 1-(1) and the cells on the fourteenth day from the initiation of culture prepared in Example 5-(2), in the same manner as in Example 1-(4). […]
The number of live cells was counted according to trypan blue staining method for the cells on the fourteenth day from the initiation of culture prepared in Example 5-(2). The expansion fold of γδ T cells was calculated in comparison of the counted number with the number of γδ T cells at the initiation of culture, in the same manner as in Example 1-(5).

| Molecule | Cytotoxic Activity (%) (Daudi cells) | Cytotoxic Activity (%) (K562 cells) | Expansion Fold of γδ T Cells (Folds) Fourteenth Day of Culture (γδ T cells) |
| --- | --- | --- | --- |
| CH-296: polypeptide comprising a cell binding domain, a heparin binding domain and a CS-1 domain of fibronectin (SEQ ID NO: 13) | 33.23 | 25.45 |  |
| B1 |  |  | ×107.5 Folds |
